The target of experiment [1] is T1, CD38 and CD138 co-expressed on cells (CD38+/CD138+ double positive cells) (UniProt P28907 1-300; P18827 23-310).
T1 construct: whole, on cells; Two separate membrane proteins on the same cell, not a complex; also called RPMI8226; OPM2
In words: FACS cell binding titration on OPM2 cells (CD38+/CD138+), arithmetic mean fluorescence against log conc in nm.

For another experiment, the target named is T2, CD38 on cells (UniProt P28907 1-300).
T2 construct: whole, on cells; Endogenous CD38 on cell lines used in FACS or microscopy; also called DOM11; T10
Briefly: FACS on RPMI cells (CD38+/138+). As for the experimental part:
(§1) All dAbs were analysed by FACS on antigen positive and negative cell lines using the following method.
(§2) The determination of cell binding by FACS was carried out as follows: cells were centrifuged at 250 g for 5 minutes and the growth medium was removed. The cells were resuspended in FACS incubation buffer at 4° C. at a density of 2×10⁶ cells/ml. The cells were blocked by incubating for 15 minutes at 4° C. in FACS incubation buffer. Fifty microliters of 2× stock of primary antibody (anti-CD38 FITC, anti-CD138 FITC or mIgG1 FITC conjugated isotype control (all BD Biosciences) was added; or dAb was added to cells in FACS incubation buffer and incubated for 30-60 minutes at 4° C. The cells were then washed once in FACS incubation buffer. One hundred microliters of secondary antibody (rabbit anti-Vk) was added to cells in FACS incubation buffer and incubated 30-60 minutes at 4° C. The cells were washed once in FACS incubation buffer. Then 100 ul of 1× tertiary antibody was added to the cells in FACS incubation buffer and incubated for 30-60 mins at 4° C. (for dAbs the tertiary antibody is anti-rabbit FITC (Sigma)). The cells were washed twice in FACS incubation buffer. The cell pellet was resuspend in 200 ul FACS incubation buffer+viable cell marker (BD Viaprobe). The cells were then analyzed by flow cytometry.

The target of experiment [2] is T3, CD38 immobilised on Biacore CM5 chip (UniProt P28907 43-300, limits assumed).
T3 construct: also called DOM11
In words: SPR (Biacore) co-injection on immobilised CD38, dAbs at 500 nM. As to the method: (§3) Anti-CD38, anti-CEA and anti-CD56 dAbs that were identified as FACS positive clones were in addition analysed by Biacore using the following procedure. The CM5 chip surface was activated by flushing 1:1 EDC/NHS (0.4M1-ethyl-3-(3-dimenthylaminopropyl)-carbodiimide in water; 0.1 M N-hydroxysuccinimide in water) at a flow rate of 5 uL/min for 10 minute contact time. CD38 was immobilised at 500 nM in Acetate buffer pH4 at 5 uL/min this was repeated until the RUs reached between 500 and 1000 (low density). CEA and CD56 were coupled in acetate buffer pH 4.5. Any excess reactive groups were deactivated by running 1M ethanolamine-HCl over the CM5 chip (again 5 uL/min for 7 mins). The affinities of the anti-CD38, anti-CEA and anti-CD56 dAbs were measured on the biacore as described above.
Epitope mapping was performed to determine whether anti-CD38 dAbs bound to different epitopes on CD38. The assay was performed on BIAcore as described above using a chip coated at medium density (RUs of ˜2000). CD38 was coated on to a CM5 chip at medium density as described above. Using the co-inject function, the first anti-CD38 dAbs was injected at a concentration of 500 nM. Both the first and second anti-CD38 dabs were the co-injected at the same concentration (500 nM). As both dAbs bind different epitopes, the RUs during the second injection increase beyond the level of binding of the first dAb.

Experiment [3] deals with T4, CD138 on cells (UniProt P18827 23-310).
T4 construct: whole, on cells; Endogenous CD138 on cell lines used in FACS; also called DOM12; syndecan-1
T4 sequence (looked up): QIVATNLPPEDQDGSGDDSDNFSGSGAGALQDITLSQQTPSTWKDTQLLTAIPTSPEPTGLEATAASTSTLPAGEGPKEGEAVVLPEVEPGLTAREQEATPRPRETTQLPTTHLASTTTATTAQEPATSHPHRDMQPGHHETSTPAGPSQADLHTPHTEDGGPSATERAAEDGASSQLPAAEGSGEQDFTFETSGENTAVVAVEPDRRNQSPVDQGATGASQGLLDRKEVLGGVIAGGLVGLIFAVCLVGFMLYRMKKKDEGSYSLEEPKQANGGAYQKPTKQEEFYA
In words: FACS on HUVEC cells (CD38-/CD138+). As to the method:
as §1, §2

Experiment [4] has as its target T3, CD38 immobilised on Biacore CM5 chip. In words: SPR (Biacore), CD38 immobilised on CM5 chip. As to the method: as §3
In general terms: Surface plasmon resonance follows binding to a sensor surface in real time, without labels.

The target is the same in experiment [5]. Briefly: Biacore, CD38 immobilised; lower end of the printed range 330-500 nM (Table 8, affinity maturation experiment).
The target is the same in experiment [6]. Briefly: Biacore, CD38 immobilised; upper end of the printed range 330-500 nM (Table 8, affinity maturation experiment).
Experiment [7] addresses T4, CD138 on cells. In words: FACS on RPMI cells (CD38+/CD138+), dAb at 500 nM. As to the method:
as §1, §2

Experimental findings from US20100021473A1 (DOMANTIS, published 2010) are described below.

B1: DOM11-3-15/DOM12-45-1 (bispecific antibody)
chain: DIQMTQSPSSLSASVGDRVTITCRASQNIDSRLSWYQQKPGKAPKLLIYRASVLQSGVPSRFSGTGSGTDFTLTISSLQPEDFATYYCQQWDMFPLSFGQGTKVEIKRSSGGGGSGGGGSGGGGSGGGGSGGGGSTDIQMTQSPSSLSASVGDRVTITCRASQDIGDRLRWYQQNPGKAPKLLIYHGSRLESGVPSRFSGNRSGTDFTLTISSLQPEDFATYYCQQQWFRPYTFGQGTKVEIKR
What is called EC50 (read off the curve) is the midpoint of the concentration-response curve. Higher therefore signals lower potency in that assay. In experiment [1], B1 returned an EC50 (read off the curve) of 100 nM.

B2: DOM11-23 (other)
chain: DIQMTQSPSSLSASVGDRVTITCRASQSINVRLIWYQQKPGKDPKLLIYSSSHLQSGVPSRFSGSGSGTDFTLTISSLQPEDFATYYCQQYHYTPFTFGQGTKVEIKR
notes: Anti-CD38 dAb monomer
Regarding B2, the binding result (with CD38 on cells; in experiment [2]) was “binds” each time.

B3: DOM11-3 (other)
chain: DIQMTQSPSSLSASVGDRVTITCRASQNIDSRLSWYQQKPGKAPKLLIYRTSVLQSGVPSRFSGSGSGTDFTLTISSLQPEDFATYYCQQWDMFPLTFGQGTKVEVK
notes: Anti-CD38 domain antibody (dAb) monomer; also called DOM11-3A
As a reminder, the Kd is the equilibrium constant for the complex coming apart. The low end stands for higher affinity, the high end for lower affinity. B3: in the experiment with CD138 on cells [3], the binding result is on record as “no binding”. Further, the values for the Kd in experiment [4], in experiment [5] and in experiment [6] were 250 nM, 330 to 500 nM and 330 to 500 nM, respectively.

B4: DOM12-45 (other)
chain: DIQMTQSPSSLSASVGDRVTITCRASQDIGDRLRWYQQKPGKAPKLLIYHGSRLESGVPSRFSGSRSGTDFTLTISSLQPEDFATYYCQQQWFRPYTFGQGTKVEIKR
notes: Anti-CD138 dAb monomer
Turning to B4, in the experiment with CD138 on cells [7], the binding result is “binds”.
